Measurements published in patent US20090214489A1 (published 2009).
Where no end group is shown, it is not given here.

T1: full length human TPO-R on transfected Ba/F3 cells (human, UniProt P40238 26-635)
T1 sequence (looked up): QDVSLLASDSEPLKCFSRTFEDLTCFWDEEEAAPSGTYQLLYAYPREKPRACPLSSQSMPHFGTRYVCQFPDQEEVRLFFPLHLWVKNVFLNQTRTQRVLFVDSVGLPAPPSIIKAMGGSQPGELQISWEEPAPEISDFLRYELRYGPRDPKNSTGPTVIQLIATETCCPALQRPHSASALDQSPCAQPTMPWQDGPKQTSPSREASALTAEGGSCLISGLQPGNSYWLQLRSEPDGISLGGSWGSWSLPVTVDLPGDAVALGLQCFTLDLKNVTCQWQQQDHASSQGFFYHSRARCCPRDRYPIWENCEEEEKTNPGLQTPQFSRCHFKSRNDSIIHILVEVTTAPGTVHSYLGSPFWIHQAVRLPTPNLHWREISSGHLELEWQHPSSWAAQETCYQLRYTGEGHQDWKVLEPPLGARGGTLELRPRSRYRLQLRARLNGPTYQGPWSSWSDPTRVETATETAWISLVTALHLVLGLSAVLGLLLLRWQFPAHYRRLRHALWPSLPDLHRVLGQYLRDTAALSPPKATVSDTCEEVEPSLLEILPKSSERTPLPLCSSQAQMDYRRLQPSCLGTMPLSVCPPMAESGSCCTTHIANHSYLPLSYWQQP


What was measured:
[1] = molecular target: murine TPO receptor on Balb/C mouse marrow cells (mouse) (UniProt Q08351); experiment: cell-based or functional assay
[2] = molecular target: T1, full length human TPO-R on transfected …; experiment: cell-based or functional assay

Row | Molecule | activity (assay not given) [2] | further results
1 | rhuTPO (from UniProt P40225 22-353) (ligand) | – | colonies of 3-5 large cells, mouse marrow in methylcellulose, 1 nM TPO, #1-1 [1]: 15 colonies; colonies of 3-5 large cells, mouse marrow in methylcellulose, 1 nM TPO, #1-2 [1]: 12 colonies; colonies of 3-5 large cells, mouse marrow in methylcellulose, 1 nM TPO, #2-1 [1]: 16 colonies; colonies of 3-5 large cells, mouse marrow in methylcellulose, 1 nM TPO, #2-2 [1]: 13 colonies; colonies of 6-12 large cells, mouse marrow in methylcellulose, 1 nM TPO, #1-1 [1]: 6 colonies; colonies of 6-12 large cells, mouse marrow in methylcellulose, 1 nM TPO, #1-2 [1]: 1 colonies; colonies of 6-12 large cells, mouse marrow in methylcellulose, 1 nM TPO, #2-1 [1]: 8 colonies; colonies of 6-12 large cells, mouse marrow in methylcellulose, 1 nM TPO, #2-2 [1]: 3 colonies
2 | CTLGQWLQMGMC (not fully specified; cysteine pairing not given here) [Table 8 compound, drawing CHEM-US-00051] | > 10 µm | –
3 | CLLSEFLAGQQC (not fully specified; cysteine pairing not given here) [Table 8 compound, drawing CHEM-US-00049] | > 10 µm | –
4 | CQRADLINFC (not fully specified; cysteine pairing not given here) [Table 8 compound, drawing CHEM-US-00048] | > 10 µm | –
5 | CNINQLRSIC (not fully specified; cysteine pairing not given here) [Table 8 compound, drawing CHEM-US-00045] | > 10 µm | –
6 | CNRSQLLAAC (not fully specified; cysteine pairing not given here) [Table 8 compound, drawing CHEM-US-00046] | > 10 µm | –
7 | CLTGPFVTQWLYEC (not fully specified; cysteine pairing not given here) [Table 8 compound, drawing CHEM-US-00052] | > 10 µm | –
8 | CTLREFLDPTTAVC (not fully specified; cysteine pairing not given here) [Table 8 compound, drawing CHEM-US-00053] | > 10 µm | –
9 | CTRAQFLKGC (not fully specified; cysteine pairing not given here) [Table 8 compound, drawing CHEM-US-00044] | > 10 µm | –
10 | CTSTQWLLAC (not fully specified; cysteine pairing not given here) [Table 8 compound, drawing CHEM-US-00047] | > 10 µm | –

More lines, main results first:

Row | activity (assay not given) [2] | Molecule | further results
11 | > 10 µm | CSLKEFLHSGLMQC (not fully specified; cysteine pairing not given here) [Table 8 compound, drawing CHEM-US-00056] | –
12 | > 10 µm | REGPTLRQWLMSRS (not fully specified) [Table 8 compound, drawing CHEM-US-00061] | –
13 | > 10 µm | CGTEGPTLSTWLDC (not fully specified; cysteine pairing not given here) [Table 8 compound, drawing CHEM-US-00054] | –
14 | > 10 µm | CELVGPSLMSWLTC (not fully specified; cysteine pairing not given here) [Table 8 compound, drawing CHEM-US-00055] | –
15 | > 10 µm | CTLKEWLVSHEVWC (not fully specified; cysteine pairing not given here) [Table 8 compound, drawing CHEM-US-00058] | –
16 | > 10 µm | CTLAEFLASGVEQC (not fully specified; cysteine pairing not given here) [Table 8 compound, drawing CHEM-US-00057] | –
17 | > 10 µm | REGPTLRQWM (not fully specified) [Table 8 compound, drawing CHEM-US-00060] | –
